Assay results: patent US20230312723A1, “METHODS AND COMPOSITIONS FOR NON-SMALL CELL LUNG CANCER IMMUNOTHERAPY” (Genentech, Inc., priority 2020, published 2023)
Marks after values point to notes of the source that are not given here.

Key:
[1] = test system: patients with Stage IV NSCLC; assay: Phase III study: safety, adverse events graded according to NCI CTCAE v4.0
[2] = test system: Stage IV non-squamous or squamous NSCLC; assay: Phase III randomized open-label study of atezolizumab vs platinum-based chemotherapy: efficacy (OS, PFS, ORR, DOR per RECIST v1.1), incl. PD-L1 and bTMB subgroups; type: in vivo, human
Experimental: As described below, the primary endpoint of this study was improvement in overall survival (OS). Secondary endpoints included progression-free survival (PFS), overall response rate (ORR), and duration of response (DOR), among others.
FIG. 1 illustrates the study design.
At screening, tumor specimens from each potentially eligible patient were tested for PD-L1 expression by a central laboratory using an IHC assay. Only patients who are PD-L1 selected (TC1/2/3 or 101/2/3; corresponding to 1% PD-L1 expressing TCs and 1% of tumor area occupied by PD-L1 expressing ICs) were enrolled. […] Randomization was stratified by sex (male vs. female), ECOG Performance Status (0 vs. 1), histology (non-squamous vs. squamous), and PD-L1 tumor expression by IHC (TC1/2/3 and any IC vs. TC0 and 101/2/3).
Patients randomized to receive pemetrexed in combination with either cisplatin or carboplatin (non-squamous disease) received chemotherapy intravenously on Day 1 of each 21-day cycle for four or six cycles, followed by maintenance therapy with pemetrexed. Patients randomized to receive gemcitabine in combination with either cisplatin or carboplatin (squamous disease) received cisplatin or carboplatin intravenously on Day 1 and gemcitabine intravenously on Days 1 and 8 of each 21-day cycle for four or six cycles, followed by best supportive care. The intended number of cycles planned for the platinum-based induction chemotherapy (i.e., four or six cycles) was specified by the investigator prior to study randomization. Treatment will continue until disease progression, unacceptable toxicity, or death.
All patients underwent tumor assessment at baseline and every 6 weeks (±7 days) for 48 weeks following Cycle 1, Day 1 regardless of treatment delays. […] In the absence of radiographic disease progression per RECIST v1.1, tumor assessments continued regardless of whether patients start a new anti-cancer therapy.
The primary efficacy outcome measure for this study is OS, defined as the time from randomization to death from any cause.
The secondary efficacy outcome measures for this study are as follows: • PFS, defined as the time from randomization to the first occurrence of disease progression, as determined by the investigator with use of RECIST v1.1, or death from any cause, whichever occurs first • Objective response (PR plus CR) as determined by the investigator according to RECIST v1.1 • DOR, defined as the time from the first occurrence of a documented objective response to the time of disease progression, as determined by the investigator with use of RECIST v1.1, or death from any cause, whichever occurs first • OS at 1- and 2-year landmark timepoints • TTD and change from baseline (i.e., improvement or deterioration based on presenting symptomatology) in each of the patient-reported lung cancer symptoms (cough, dyspnea, or chest pain) with use of the SILO scale • TTD in patient-reported lung cancer symptoms, defined as time from randomization to deterioration (10-point change) in any of the following symptom subscales (cough, dyspnea [multi-item scale], and chest pain), whichever occurs first, as measured by the EORTC QLQ-LC13 • OS and investigator-assessed PFS according to RECIST v1.1 in the PD-L1 (defined with SP263 IHC assay) and bTMB subpopulations. The bTMB assay (Foundation Medicine, Cambridge, MA) identifies single nucleotide variants at ≥0.5% across 394 genes and estimates tumor fraction by maximum somatic allele frequency, filters out germline events and counts non-driver somatic mutations to generate a bTMB score. The bTMB score cutoffs evaluated were 0, 6 and […] of 16 (16 mutations/1.1 Mb) equates to approximately 14.5 mutations/Mb.

[3] = test system: patients with Stage IV NSCLC; settings: in vivo
[4] = TC1/2/3 or IC1/2/3-WT population
[5] = bTMB 6 cutoff, bTMB BEP-WT population

## atezolizumab
[1]; Chemo N = 263, Atezo N = 286
  Grade 5 AE: Total, % of patients: 3.8%
[1]; safety population: 286 patients Arm A, 263 Arm B
  Safety profile compared to platinum-based chemotherapy (in words): favorable safety profile
[2]; PD-L1-positive BEP subgroups
  OS vs chemotherapy (in words): OS improvement favoring atezolizumab vs chemotherapy
[2]; [4]
  Median OS: 17.5 months
  OS HR, stratified (atezo vs chemo): 0.832
[2]; TC2/3 or IC2/3-WT population
  Median OS: 18.2 months
  OS HR, stratified (atezo vs chemo): 0.717
[2]; TC3 or IC3-WT population
  Confirmed ORR: 38.3% (29.08,
  Overall Survival, Median: 20.2 months
  Overall Survival, Stratified HR (atezo vs chemo): 0.595
  Overall Survival, improvement of median vs chemo: 7.1 months
  Progression-Free Survival, Median: 8.1 months
  Progression-Free Survival, Stratified HR (atezo vs chemo): 0.630
  Progression-Free Survival, improvement of median vs chemo: 3.1 months
[2]; across PD-L1 BEP subgroups
  PFS vs chemotherapy (in words): PFS improvement with atezolizumab was observed
[2]; [5]
  OS unstratified HR (atezolizumab vs chemotherapy): 0.75
  PFS HR (atezolizumab vs chemotherapy): 0.55
[3]
  AESI Adrenal insufficiency Gr3-4, patients with event: 0
  AESI Adrenal insufficiency, patients with event: 2
  AESI Adrenal insufficiency, percent of patients: (0.7%)
  AESI Colitis Gr3-4, patients with event: 2
  AESI Colitis Gr3-4, percent of patients: (0.7%)
  AESI Colitis, patients with event: 3
  AESI Colitis, percent of patients: (1.0%)
  AESI Diabetes Mellitus Gr3-4, patients with event: 1
  AESI Diabetes Mellitus Gr3-4, percent of patients: (0.3%)
  AESI Diabetes Mellitus, patients with event: 2
  AESI Diabetes Mellitus, percent of patients: (0.7%)
  AESI Hepatitis Gr3-4, patients with event: 12
  AESI Hepatitis Gr3-4, percent of patients: (4.2%)*
  AESI Hepatitis, patients with event: 46
  AESI Hepatitis, percent of patients: (16.1%)
  AESI Hyperthyroidism Gr3-4, patients with event: 0
  AESI Hyperthyroidism, patients with event: 13
  AESI Hyperthyroidism, percent of patients: (4.5%)
  AESI Hypothyroidism Gr3-4, patients with event: 0
  AESI Hypothyroidism, patients with event: 27
  AESI Hypothyroidism, percent of patients: (9.4%)
  AESI Infusion-Related Reactions Gr3-4, patients with event: 0
  AESI Infusion-Related Reactions, patients with event: 4
  AESI Infusion-Related Reactions, percent of patients: (1.4%)
  AESI Myocarditis Gr3-4, patients with event: 1
  AESI Myocarditis Gr3-4, percent of patients: (0.3%)
  AESI Myocarditis, patients with event: 1
  AESI Myocarditis, percent of patients: (0.3%)
  AESI Myositis Gr3-4, patients with event: 0
  AESI Myositis, patients with event: 1
  AESI Myositis, percent of patients: (0.3%)
  AESI Nephritis Gr3-4, patients with event: 0
  AESI Nephritis, patients with event: 1
  AESI Nephritis, percent of patients: (0.3%)
  AESI Pneumonitis Gr3-4, patients with event: 2
  AESI Pneumonitis Gr3-4, percent of patients: (0.7%)
  AESI Pneumonitis, patients with event: 11
  AESI Pneumonitis, percent of patients: (3.8%)
  AESI Rash Gr3-4, patients with event: 3
  AESI Rash Gr3-4, percent of patients: (1.0%)
  AESI Rash, patients with event: 44
  AESI Rash, percent of patients: (15.4%)
  AESI Severe Cutaneous Adverse Reaction Gr3-4, patients with event: 0
  AESI Severe Cutaneous Adverse Reaction, patients with event: 2
  AESI Severe Cutaneous Adverse Reaction, percent of patients: (0.7%)
  AESI Vasculitis Gr3-4, patients with event: 1
  AESI Vasculitis Gr3-4, percent of patients: (0.3%)
  AESI Vasculitis, patients with event: 1
  AESI Vasculitis, percent of patients: (0.3%)
  Immune-mediated Adrenal insufficiency requiring systemic corticosteroids, %: (0.3) %
  Immune-mediated Diabetes mellitus requiring systemic corticosteroids, %: (0.3) %
  Immune-mediated Hypothyroidism requiring systemic corticosteroids, %: (0.3) %
  Immune-mediated Infusion-related reaction requiring systemic corticosteroids, %: (0.3) %
  Immune-mediated Nephritis requiring systemic corticosteroids, %: (0.3) %
